For orientation: koff means the first-order rate constant of dissociation.

In publication PMC9729883 one finds koff data, which are given here for 1 substance.

Assay [1] has as its target afucosylated IgG1 and IgG3 (HLA-A2 mAbs, as a group for a mean dissociation rate). Description: BLI; SAX2 tips loaded with biotinylated HLA-A2 (0.25 ug/mL), then recombinant HLA-A2 IgG (3 ug/mL, 600 s), dipped into 5 uM monomeric FcγRIIIa V158; 0.05% Tween-PBS; off-rate from a one phase exponential decay fit, reference tip subtracted.
In assay [2] the target is unmodified forms (of BB7.2 IgG1 and IgG3, as a group for a mean dissociation rate). The description is as above.

Regarding “FcγRIIIa V158 (human, monomeric) (receptor)”, the off-rate (koff) in assay [1] came out at 0.021 s⁻¹; in assay [2], 0.46 s⁻¹.
